± gives the uncertainty stated by the source.
Test: protein stability index of a GFP-peptide fusion (yeast GPS) (PSI 1-4); higher = more stable; sorted into four equal gates, so the index is relative within each strain
Settings: doa10∆
How it was run: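 Mid-log yeast cultures in leucine-free medium, carrying a pooled plasmid library, were sorted into four equal gates by their GFP/Cherry fluorescence ratio. Each plasmid expressed Cherry along with GFP fused upstream of a tiled 17-residue yeast protein peptide. Plasmids recovered from each gate were PCR-amplified and Illumina-sequenced, with reads assigned to strains by barcodes. The protein stability index was obtained by summing each gate's read frequency weighted by its gate number.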
Sequence SKKLNLKIHQSHLVVPY [YMR129W/POM152] has a protein stability index of 2.32 ± 0.15.
For SKKNRPTLQVGDLVYAR [RRP40], the protein stability index was 2.36 ± 0.1.
Sequence SKKQRNNGSKDHGDGIL [RPN9] has a protein stability index of 3.37 ± 0.13.
Work on SKKTSPKATSSAGAVFK [YOR098C/NUP1] yielded a protein stability index of 2.7 ± 0.12.
For SKLGKNLQTVHFGHCFN [GRR1], the protein stability index was 1.42 ± 0.092.
SKNAQFICTTFRTDMLQ [SMC3] gave a protein stability index of 2.11 ± 0.074.
SKPVLIVGQKNLNRAFN [DIS3] showed a protein stability index of 3.08 ± 0.11.
SKQDLIHSLIPVAKWFV [SIN4] showed a protein stability index of 2.4 ± 0.076.
In the case of SKQQAKGAFQKVAATSR [RPL24A], the protein stability index is reported as 2.52 ± 0.043.
Work on SKRWAQRTLSKSFYSTA [CYT1] yielded a protein stability index of 1.69 ± 0.052.
SKRYIPSVNDFVIGVII [RRP40] showed a protein stability index of 2.4 ± 0.054.
Sequence SKSNLIHNYDSKKSTIT [RGR1] has a protein stability index of 3.03 ± 0.067.
For SKSVPTPSLPIAPPVAP [SNF5], the protein stability index was 2.74 ± 0.057.
SLAKSSALWSSRKGIAF [ECM29] gave a protein stability index of 1.9 ± 0.069.
SLASCLRSTEYSKSFEQ [POP1] gave a protein stability index of 2.58 ± 0.11.
In the case of SLDDNSTSLEKQINSIK [YJL041W/NSP1], the protein stability index is reported as 2.78 ± 0.079.
SLDEILLPANLLSLNSV [SRP68] showed a protein stability index of 3.13 ± 0.058.
In the case of SLDLNNLELGGLNMDFL [PGD1], the protein stability index is reported as 3.24 ± 0.098.
Work on SLELQSFQKIPLSRINE [YML103C/NUP188] yielded a protein stability index of 2.67 ± 0.12.
Sequence SLFELIVPIFQLISAVL [YJL039C/NUP192] has a protein stability index of 1.86 ± 0.068.
Sequence SLILKESGSTPISISNA [YAR002W/NUP60] has a protein stability index of 1.2 ± 0.085.
In the case of SLKNTDALLNSTTEHIN [YJL039C/NUP192], the protein stability index is reported as 1.9 ± 0.15.
With SLLDAEEERRKKRESGV [SNF2] the protein stability index was 3.47 ± 0.08.
SLLGGFDENIARDIISH [PCI8] gave a protein stability index of 2.83 ± 0.058.
For SLLLSSVKESTGMSSMS [SRB4], the protein stability index was 1.96 ± 0.081.
Work on SLQDRSSLVRRNSVKLL [YCS4] yielded a protein stability index of 2.02 ± 0.055.
Sequence SLQRSKSSFVKESAVIS [SMC1] has a protein stability index of 2.04 ± 0.11.
SLQYINIRGNTIRQIIL [SMD1] gave a protein stability index of 3.15 ± 0.097.
With SLRILAKLSERSNGSVA [YJL039C/NUP192] the protein stability index was 2.5 ± 0.048.
Sequence SLSDEVMRNEIRITSLQ [SIR4] has a protein stability index of 2.92 ± 0.065.
Sequence SLSKISQAFDIVAALPI [RPP1] has a protein stability index of 3.18 ± 0.12.
Sequence SLSNPNSTATMQHNPLA [PGD1] has a protein stability index of 2.86 ± 0.04.
Work on SLTAEAMTAAEHGLHAP [CYT1] yielded a protein stability index of 2.82 ± 0.091.
Work on SLTPTQSDSAKVEIKKV [PRP28] yielded a protein stability index of 3.01 ± 0.12.
Sequence SLTTVWAEHLSDEVKRR [RPL3] has a protein stability index of 2.87 ± 0.13.
SLVNSYIIDSPQPSSIN [COB] showed a protein stability index of 1.51 ± 0.085.
SLYPPPPPYVKFFTQSN [MED7] gave a protein stability index of 1.97 ± 0.043.
SMFSGLDSTGFDSTAFN [MED2] showed a protein stability index of 3.05 ± 0.044.
Work on SMINNSNQAVGQTWNFP [SRB8] yielded a protein stability index of 2.8 ± 0.17.
With SMKANTSTNPNGLGTSH [ARP7] the protein stability index was 3.22 ± 0.093.
Work on SNDFEEGSTIRYLAVTL [YMR129W/POM152] yielded a protein stability index of 2.06 ± 0.05.
With SNDTTAFNDSCVNLSLF [SRB8] the protein stability index was 3.07 ± 0.065.
With SNFTSIIGPNGSGKSNM [SMC1] the protein stability index was 3.33 ± 0.13.
Work on SNIELAFSSVEHIIRDV [COB] yielded a protein stability index of 3 ± 0.087.
For SNIPNLLRNLESKMRQQ [YDL088C/ASM4], the protein stability index was 3.15 ± 0.11.
SNIQRNVLFLRLFNNVK [SRP72] gave a protein stability index of 2.24 ± 0.059.
Work on SNTNDNISIITLELESF [RGR1] yielded a protein stability index of 2.54 ± 0.075.
Work on SNTTTQIQFTPLIKKIK [SMC3] yielded a protein stability index of 2.2 ± 0.088.
In the case of SNVNSDIYFKLKKLEKE [RPT3], the protein stability index is reported as 3.22 ± 0.09.
For SNYAASNSMDRSSSASN [SWI1], the protein stability index was 2.79 ± 0.14.
With SPELKADLRPLQIKSIR [RPS7B] the protein stability index was 2.42 ± 0.14.
For SPFGAYGEAPTSPGFGV [RPO21], the protein stability index was 2.87 ± 0.086.
Work on SPIFEVLSDDAKKLSSF [ARP9] yielded a protein stability index of 2.84 ± 0.062.
With SPLQKEEALNFDISMAD [SSN2] the protein stability index was 3.23 ± 0.058.
Work on SPLYMDTETFDTVNSAL [YML103C/NUP188] yielded a protein stability index of 3.11 ± 0.14.
In the case of SPMGAQPSYNSAIIENA [GAL11], the protein stability index is reported as 2.88 ± 0.074.
Work on SPNFKNYLKYLEYWCNP [SOH1] yielded a protein stability index of 2.32 ± 0.055.
With SPRFNVKIGDIEKWTAN [RPS22A] the protein stability index was 3.06 ± 0.082.
For SPTINRANVYVGFLVQL [PRP8], the protein stability index was 2.6 ± 0.065.
With SPYGNLQNDLIHKIQND [RPN5] the protein stability index was 2.02 ± 0.083.
For SQFCYVSDDESNGEVLE [RPN14], the protein stability index was 3.41 ± 0.22.
Sequence SQIFDQLKDMQTIEMIT [SRB8] has a protein stability index of 2.78 ± 0.058.
SQKTKTIQSDLNLSLHK [SMC2] showed a protein stability index of 2.35 ± 0.056.
Sequence SQLDLFLRTMKLTSEET [GRR1] has a protein stability index of 2.77 ± 0.055.
In the case of SQLNIQLSQDEHSQVEQ [SRP72], the protein stability index is reported as 3.17 ± 0.06.
Work on SQLPITPMTRISELPPQ [YGL172W/NUP49] yielded a protein stability index of 2.35 ± 0.057.
In the case of SQPNNTPSFSFGKTTAN [YLR335W/NUP2], the protein stability index is reported as 2.76 ± 0.054.
Work on SQSQQKLLKEKVKLFHG [MED2] yielded a protein stability index of 3.1 ± 0.091.
SQVDPITLFVLVSVVEA [FAS2] gave a protein stability index of 1.44 ± 0.045.
Sequence SQVFGVARIYASFNDTF [RPS14A] has a protein stability index of 2.05 ± 0.062.
Work on SREAVRHFGMGPHKGKA [RPL18A] yielded a protein stability index of 3.22 ± 0.19.
SRGFEVMYNGHTGKKLM [RPB2] gave a protein stability index of 1.97 ± 0.12.
Sequence SRKETSRTATWLKNKFA [BRR2] has a protein stability index of 1.37 ± 0.057.
Sequence SRLKALNLQFKAKVDDL [YLR335W/NUP2] has a protein stability index of 3.12 ± 0.075.
Work on SRSTDNFHNSKKRMNSN [RRI1] yielded a protein stability index of 2.11 ± 0.06.
Sequence SRTLILSILNEIKKVTQ [SIN4] has a protein stability index of 3.05 ± 0.12.
With SRYEPKVFDCGDNIVMS [PRE7] the protein stability index was 2.49 ± 0.12.
In the case of SSDAFEVDVCDKCGLMG [RET1], the protein stability index is reported as 2.38 ± 0.18.
For SSDGQLKKFRESLVHSA [BRR2], the protein stability index was 3.41 ± 0.15.
SSEYETINISLSFSWAI [NUT1] showed a protein stability index of 1.51 ± 0.1.
SSFEKFNDSQAIVCYIL [SRP72] gave a protein stability index of 2.43 ± 0.046.
SSHAKGIVLEKLGIESK [RPS23A] gave a protein stability index of 3.02 ± 0.15.
For SSIDRGFGRCETRRKTT [RET1], the protein stability index was 2.41 ± 0.071.
Work on SSIENNINNNINSTKNG [MED2] yielded a protein stability index of 2.85 ± 0.081.
In the case of SSKKVFSSNLSYANHLE [YOR098C/NUP1], the protein stability index is reported as 2.31 ± 0.067.
In the case of SSKLVDVYTLPSYVHFK [YML103C/NUP188], the protein stability index is reported as 1.82 ± 0.047.
SSKPAFNLISNAGTEKE [YLR335W/NUP2] showed a protein stability index of 3.13 ± 0.094.
In the case of SSLKESSPDTMKLTDLL [SNF12], the protein stability index is reported as 3.09 ± 0.088.
SSLMNGLGYVFEFQYLT [SRB5] gave a protein stability index of 2.25 ± 0.095.
For SSNILEDILYYSTCPSE [SRB8], the protein stability index was 2.4 ± 0.1.
Sequence SSSIKSTGPTGAVSLNP [RRP4] has a protein stability index of 3.24 ± 0.035.
In the case of SSSKQQSRLFINELVLE [SMC4], the protein stability index is reported as 3.02 ± 0.14.
Sequence SSSKSMINDENYIINDI [SRB8] has a protein stability index of 2.92 ± 0.064.
Work on SSSNGGGSAKPSLKFKP [RPC53] yielded a protein stability index of 2.61 ± 0.13.
In the case of SSSSDIIVPDLIELKSD [YML103C/NUP188], the protein stability index is reported as 2.71 ± 0.085.
SSSTQNVFVILMDKCLP [DIS3] gave a protein stability index of 1.97 ± 0.085.
SSTPKFTKKPVTPNDKI [SIR4] showed a protein stability index of 2.96 ± 0.11.
In the case of STAFVPTIEYVQCPTVI [ARP9], the protein stability index is reported as 1.68 ± 0.065.
For STCIVSLIRNNLHAEGW [ECM29], the protein stability index was 1.21 ± 0.052.
STRASTVPNLPTTMVTN [ISW2] gave a protein stability index of 1.92 ± 0.055.
For STTAALQSISSLTISLY [RPN7], the protein stability index was 1.74 ± 0.041.

Reference: the supplement of paper PMC9732359
